{
  "source": "patent US20120225065A1",
  "biological_target": "Human IL-21 receptor on Baf3/KZ134/huIL-21R cells (human) (UniProt Q9HBE5)",
  "sequence (Q9HBE5 20-538)": "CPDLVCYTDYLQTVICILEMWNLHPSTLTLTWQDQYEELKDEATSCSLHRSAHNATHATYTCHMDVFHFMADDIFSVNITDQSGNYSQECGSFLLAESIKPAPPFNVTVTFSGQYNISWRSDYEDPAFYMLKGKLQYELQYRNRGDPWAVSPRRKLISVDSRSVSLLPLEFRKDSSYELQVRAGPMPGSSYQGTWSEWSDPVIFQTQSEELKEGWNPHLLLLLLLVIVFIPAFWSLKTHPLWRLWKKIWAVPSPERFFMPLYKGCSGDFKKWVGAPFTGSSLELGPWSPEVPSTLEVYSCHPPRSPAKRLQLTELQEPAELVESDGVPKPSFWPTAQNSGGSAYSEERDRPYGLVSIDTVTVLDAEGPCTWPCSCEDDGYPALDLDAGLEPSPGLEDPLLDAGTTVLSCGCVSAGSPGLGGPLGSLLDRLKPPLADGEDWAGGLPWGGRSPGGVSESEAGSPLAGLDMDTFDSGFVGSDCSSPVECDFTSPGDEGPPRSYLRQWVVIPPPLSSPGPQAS",
  "assay": "cell-based or functional assay",
  "data": [
    {"substance": "Recombinant rat IL-21 (from UniProt A3QPB9 18-146) (ligand)", "values": [
      {"measurement": "EC90 in STAT-Luciferase assay", "value": 1.08, "unit": "nM"}
    ]}
  ]
}
